Results reported in patent US20260069689A1 (Regeneron, published 2026).
Positions count from the first letter of the chain named.

Tests used:
[1] = biological target: SARS-COV-2 RBD extracellular domain expressed with a C-terminal myc-myc-hexahistidine tag (SARS-CoV-2); test: SPR (Biacore), mAb captured by anti-human Fc, RBD-mmH in solution, 25 C
[2] = biological target: SARS-COV-2 RBD extracellular domain expressed with a C-terminal myc-myc-hexahistidine tag (SARS-COV-2 RBD-mmH) (SARS-CoV-2); test: SPR Biacore, mAb captured on anti-hFc, RBD-mmH analyte, 37 C

B1: mAb14281 (antibody, V domains shown)
VH: QVQLVQSGADVKKPGASVKVSCKTSGYIFTGYYIHWVRQAPGQGLEWMGWINPNSGGTNSAQKFQGRVTMTRDTSISTVYMELSRLRSDDTAVYYCAKSNSFSVLDYNFDYWGQGTLVTVSS
VL: SSELTQDPAVSVALGQTVRITCQGDSLRSYYASWYQQKPGQAPVLVIYDKNNRPSGIPDRFSGSSSGNTASLTITGAQAEDEADYYCNSRDSSRNHLVVFGGGTKLTVLG
Work on B1 yielded a Kd [1] of 5.02 nM, a koff [1] of 0.00554 s⁻¹ and a kon [1] of 1.1e+06 M⁻¹ s⁻¹. It also gave a t½ [1] of 2.1 min.

B2: mAb15163 (antibody, V domains shown)
VH: EVQLVETGGGLIQPGESLRLSCAASGFIVSTNYMNWVRQAPGKGLEWVSVIYRGGSTYYADSVKGRFTISRDNSKNTLFLQMNSLRAEDTAVYYCARGHEDFDYDTPASGAFDIWGQGTMVTVSS
VL: QSALTQPPSASGSPGQSVTISCTGTSSDVGGHNYVSWYQQHPGKAPKVMIYEVSKRPSGVPDRFSGSKSGNTASLTVSGLQAEDEADYYCSSYAGSNKFVFGTGTKVTVLG
B2 gave a Kd [2] of 1.78 nM, a koff [2] of 0.000387 s⁻¹ and a kon [2] of 218000 M⁻¹ s⁻¹. The t½ [2] was 29.9 min.

B3: mAb15157 (antibody, V domains shown)
VH: EVQLVESGGALVQPGGSLRLSCAASGFPFTIYAMTWVRQAPGKGLEWVSVITGSGDSTYYADSVKGRFTISRDNSKNTLYLQMNSLRAEDTAVYYCVKTGEGFFYYYYGMDVWGQGTTVTVSS
VL: QSVLTQPPSVSAAPGQKVTISCSGSSSNIGNSYISWYQQLPGTAPKLLIYVNNKRPSGIPDRFSGSKSGTSATLGITGLQTGDEADYYCGTWDSSLSAGVFGSGTKVTVLG
In the case of B3, the Kd [2] is reported as 11.6 nM, the koff [2] is reported as 0.00399 s⁻¹ and the kon [2] is reported as 344000 M⁻¹ s⁻¹. For the same binder, the t½ [2] was 2.9 min.

B4: mAb15160 (antibody, V domains shown)
VH: EVQLVESGGGLVQPGGSLRLSCSASGFTFSRYAMYWVRQAPGKGLEYVSAISSDGGSTYDADSVKGRFTISRANSKNTLYLQMSSLRAEDTAVYYCVKGLRELLYYYYGMDVWGQGTTVTVSS
VL: DIQMTQSPSSLSASVGDRVTITCRAGQSISSFLNWYQQKPGKAPKLLIYAASSLQSGVPSRFSGSGSGTDFTLTISSLQPEDFATYYCQQSYITPFTFGPGTKVDIKR
Binder B4 has a Kd [2] of 7.79 nM, a koff [2] of 0.00194 s⁻¹ and a kon [2] of 250000 M⁻¹ s⁻¹. For the same binder, the t½ [2] was 5.9 min.

B5: mAb15158 (antibody, V domains shown)
VH: EVQLVESGGGLVQPGGSLRLSCAASGFSFSSNWMSWVRQAPGKGLEWVGNINQDGSEKYYVDSVEGRFTISRDNAKKSLYLQMNSLRAEDTAVYYCARDLGVLWFGDFVDWGQGALVTVSS
VL: DIQMTQSPSSLSASVGDRVTITCRASQAISNSLAWYQQKPGKAPKLLLYAASTLESGVPSRFSGSGSGTDYTLTISSLQPEDFATYYCLQYYGSPRTFGQGTKVEIKR
Binder B5 has a Kd [2] of 1.65 nM, a koff [2] of 0.000207 s⁻¹ and a kon [2] of 126000 M⁻¹ s⁻¹. For the same binder, the t½ [2] was 55.7 min.

B6: mAb15162 (antibody, V domains shown)
VH: EVQLVETGGGLIQPGGSLRLSCAASEFIVSRNYMSWVRQAPGKGLEWVSLIYSGGSTYYADSVKGRFTISRDNSKNILYLQMNSLRAEDTAVYYCARDRGGISDYWGQGTLVTVSS
VL: DIQMTQSPSSLSASVGDRVTITCQASQDINKYLNWFQQKPGKAPKLLIYDASNLETGVPSRFSGSGSGTDFTFTISSLQPEDIATYYCQQYDNLPRTFGQGTKLEIKR
B6 showed a Kd [2] of 29.2 nM, a koff [2] of 0.00299 s⁻¹ and a kon [2] of 103000 M⁻¹ s⁻¹. It also gave a t½ [2] of 3.9 min.

B7: mAb14232 (antibody, V domains shown)
VH: QITLKESGPTLVKPTQTLTLTCTFSGFSLSASGVGVGWIRQPPGKALEWLALIYWDDDKRYSPSLKSRLTITKDTSKNQVVLTMTNMDPVDTATYYCAQHKVATIFDYWGQGTLVTVSS
VL: QSALTQPPSASGSPGQSVTISCTATSSDVGNYNYVSWYQQHPGKAPKLMIYEVTKRPSGVPDRFSGSKSGNTASLTVSGLQAEDEADYYCSSYAGSWGVFGGGTKLTVLG
With B7 the Kd [2] was 7.92 nM, the koff [2] was 0.0372 s⁻¹ and the kon [2] was 4.69e+06 M⁻¹ s⁻¹. For the same binder, the t½ [2] was 0.3 min.

B8: mAb15156 (antibody, V domains shown)
VH: QLQLQESGPGLVKSSETLSLTCTVSASITGSTYYWGWIRQPPGKGLEWIGSIYYSGTTYYKASLKSRVTISVDTSKNQFSLKLTSVTVADTAVYYCVSHLLGNYHKYGMDVWGQGTTVTVSS
VL: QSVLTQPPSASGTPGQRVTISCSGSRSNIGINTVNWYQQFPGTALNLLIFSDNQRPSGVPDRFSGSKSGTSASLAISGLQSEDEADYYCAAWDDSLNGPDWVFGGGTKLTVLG
Work on B8 yielded a Kd [2] of 14.4 nM, a koff [2] of 0.00535 s⁻¹ and a kon [2] of 373000 M⁻¹ s⁻¹. The t½ [2] was 2.2 min.

B9: mAb15150 (antibody, V domains shown)
VH: EVQLVETGGGLIQPGGSLRLSCAAPGFIVSSNYMSWVRQAPGKGLEWVSLLYPGGSTYYADSVKGRFTISRDNSKNTLYLQMNSLRADDTAVYYCARVLPIVEDHFDYWGQGTLVTVSS
VL: DIQLTQSPSFLSASVGDRVTITCRASQGMSSYLAWYQKKPGKAPKLLIYGATILQSGVPSRFSGSGSGTEFTLTISSLQPEDFATYYCQQLNSDPLYMYTFGQGTKLEIKR
Binder B9 has a Kd [2] of 0.158 nM, a koff [2] of 7.84e-05 s⁻¹ and a kon [2] of 493000 M⁻¹ s⁻¹. For the same binder, the t½ [2] was 147 min.

B10: mAb14282 (antibody, V domains shown)
VH: QVQLVQSGAEVKKPGASVKVSCKASGYIFTDHYMHWVRQAPGQGLEWMGWINPNSGATNYAQNFQGRVTMTRDTSIITVYMELSRLRSDDTAVYYCARDSSPYMIRYTMDVWGQGTTITVSS
VL: QSALTQPASVSGSPGQSITISCTGTSSDVGSYNLVSWYQQHPGKAPKLMIYELTKRPSGVSNRFSGSKSGNTASLTISGLQAEDEADYYCSSYRGSVTDVVFGGGTKLTVLG
Binder B10 has a Kd [1] of 4.97 nM, a koff [1] of 0.00957 s⁻¹ and a kon [1] of 1.93e+06 M⁻¹ s⁻¹. It also gave a t½ [1] of 1.2 min.

B11: mAb15151 (antibody, V domains shown)
VH: QVQLVESGGGVVQPGRSLRLSCAASGFVFNSYGMHWVRQAPGKGLEWVAVLWYEGSKNYYADSVKGRFTISRDNSKNTLYLQMNSLRAEDTAVYYCARHGSGSFFGYYLDYWGQGTLVTVSS
VL: DIQMTQSPSSLSASVGDRVTITCRASHNINDFLNWYQQKPGKAPRLLIYAASSLQSGVPSRFSGSGSGTDFTLTISSLQPEDFATYYCQESYTTPPTFGQGTKLEIKR
With B11 the Kd [2] was 24.6 nM, the koff [2] was 0.00442 s⁻¹ and the kon [2] was 180000 M⁻¹ s⁻¹. The t½ [2] was 2.6 min.

B12: mAb14292 (antibody, V domains shown)
VH: EVQLVESGGGLVQPGGSLRLSCVASGFAFSTYEMNWVRQAPGKGLEWVSYISSSGSTIYYADSVKGRLTISRDNVKNSLYLQMNSLRVEDTAIYYCARDAIRNNDILTDPATFDPWGQGTLVTVSS
VL: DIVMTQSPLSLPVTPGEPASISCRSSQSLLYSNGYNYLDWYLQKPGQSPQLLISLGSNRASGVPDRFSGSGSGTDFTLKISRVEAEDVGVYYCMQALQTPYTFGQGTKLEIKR
B12 was tested, and the Kd [2] was 60.7 nM, the koff [2] was 0.0218 s⁻¹ and the kon [2] was 359000 M⁻¹ s⁻¹. For the same binder, the t½ [2] was 0.5 min.

B13: mAb14286 (antibody, V domains shown)
VH: QVQLVQSGAEVKKPGASVKVSCKASGYTFTDYFIHWVRQAPGQGLEWMGWINPTSGGTNYAQKFRGRVTMTRDTSISTAYVELSRLRSDDTALYYCARDLPFYSDTKQFDYWGQGTLVTVSS
VL: QSALTQPASVSGYPGQSITISCTGTSSDVGGYNYVSWYQQHPGKAPKLMIFDVSNRPSGVSNRFSGSKSGNTASLTFSGLQAEDEADYYCSSYTSSSTLVFGGGTKLTVLG
For B13, the Kd [1] was 3.22 nM, the koff [1] was 0.0104 s⁻¹ and the kon [1] was 3.23e+06 M⁻¹ s⁻¹. It also gave a t½ [1] of 1.1 min.

B14: mAb15164 (antibody, V domains shown)
VH: EVQLVESGGGLVQPGGSLRLSCAASGFAVSSNYMTWVRQAPGKGLEWVATIYSGDSTYYADSVKGRFTISRHNSKNTLSLQMNSLRADDTAIYYCARLSGVLSGTYNGAFDIWGQGTMVTVSS
VL: QSALTQPASVSGSPGQSITISCTGTSSDFGNYNIVSWYQQHPGQAPKVMIYEGNKRPSGVSNRFSGSKSGHTASLTISGLQAEDEADYYCSSYAGSSTWVFGGGTKLTVLG
With B14 the Kd [2] was 6.33 nM, the koff [2] was 0.00179 s⁻¹ and the kon [2] was 283000 M⁻¹ s⁻¹. For the same binder, the t½ [2] was 6.5 min.

B15: mAb15166 (antibody, V domains shown)
VH: EVQLVESGGGLVQPGGSLRLSCAASGFTVTSNYMSWVRQAPGKGLEWVSAIYSGESTYYADSVKGRFTISRDSSKNTLYLQMNSLRVEDTAVYYCASIHDYSNYVGGFDPWGQGTLVTVSS
VL: B14 VL with T25P, N31S, I34L, Q44K, V48L, N54T, H71N
With B15 the Kd [2] was 95.3 nM, the koff [2] was 0.0334 s⁻¹ and the kon [2] was 350000 M⁻¹ s⁻¹. The t½ [2] was 0.3 min.

B16: mAb15165 (antibody, V domains shown)
VH: EVQLVESGGGLVQPGGSLRLSCAASGFTVSSNYMSWVRQAPGKGLEWVSAIYSGDSTYYADSVKGRFTISKDNSKNTLYLQMNSLRGEDTAVYYCARLGGALQAYDGAFDYWGQGTLATVSS
VL: B14 VL with N31S, I34L, Q44K, V48L, N62I, H71N
Binder B16 has a Kd [2] of 3.1 nM, a koff [2] of 0.00147 s⁻¹ and a kon [2] of 475000 M⁻¹ s⁻¹. For the same binder, the t½ [2] was 7.9 min.

B17: mAb14234 (antibody, V domains shown)
VH: QVQLVESGGGVVQPGRSLRLSCAASGFTFSSYGIHWVRQAPGKGLEWVAIIWYDGSEKYYADSVKGRFTISRDNSKNTLFLQMNSLEAEDTAVYYCARGPDLLTGYYNYFYYGMDVWGQGTTVTVSS
VL: QSVLTQPPSVSGAPGQRVTISCTGSSSNIGIGYDVHWYQQLPGTVPKLLIYGNTNRPSGVPDRFSGSKSGTSASLAITGLQAEDEADYYCQSYDSSLSSYVFGTGTKVTVLG
B17 was tested, and the Kd [2] was 22.3 nM, the koff [2] was 0.0119 s⁻¹ and the kon [2] was 534000 M⁻¹ s⁻¹. For the same binder, the t½ [2] was 1 min.

B18: mAb15161 (antibody, V domains shown)
VH: EVQLVESGGGLVQPGGSLRLSCAASGFTFSSYEMNWVRQAPGKGLEWVSYISSSGSILYYADSVKGRFTASRDNAKNSLYLQMNSLRAEDTGVYYCARREYQLLRPFEFWGQGTLVTVSS
VL: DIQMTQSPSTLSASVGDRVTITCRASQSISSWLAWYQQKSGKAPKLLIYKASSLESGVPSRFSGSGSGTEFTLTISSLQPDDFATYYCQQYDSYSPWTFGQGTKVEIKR
B18 gave a Kd [2] of 3.29 nM, a koff [2] of 0.000866 s⁻¹ and a kon [2] of 263000 M⁻¹ s⁻¹. It also gave a t½ [2] of 13.3 min.

B19: mAb15159 (antibody, V domains shown)
VH: EVQLVESGGGLVQPGGSLRLSCAASGITVSSNYMTWVRQAPGKGLEWVSLIYSGGSTFYADSVRGRFTISRDNSKNTLYLQMNSLRAEDTAVYYCARDLVVYGMDVWGQGTTVTVSS
VL: DIQLTQSPSSLSASVGDRVTITCRASQGISSYLAWYQQKPGKAPKLLIYAASTLQSGVPSRFSGSGSGTDFTLTISSLQPEDFATYYCQHLNSDPHTFGQGTKLEIKR
B19 gave a Kd [2] of 1.21 nM, a koff [2] of 0.000176 s⁻¹ and a kon [2] of 146000 M⁻¹ s⁻¹. The t½ [2] was 65.6 min.

B20: mAb15170 (antibody, V domains shown)
VH: B19 VH with S25T, T35S, R64K, D72H, N83S, V101D, Y102F
VL: B19 VL with S31N, A84G, H90Q, P95S, H96P, L104V
In the case of B20, the Kd [2] is reported as 0.297 nM, the koff [2] is reported as 8.36e-05 s⁻¹ and the kon [2] is reported as 283000 M⁻¹ s⁻¹. The t½ [2] was 138 min.
